The values below come from US20220256794A1, “TERPENE SYNTHASES AND TRANSPORTERS” (The State of Israel, Ministry of Agriculture & Rural …, priority 2019, published 2022).

A short description of this test: Terpene synthase activity assay with FPP. As to conditions: TPS expressed in E. coli; 10 μM FPP, overnight at 30° C., SPME GC-MS. In kind it is biochemical. The method, then:
Putative terpene synthase genes were synthesized by the TWIST Co., and cloned into Novagen pET-28a(+) with a 6×His tag at its' N-terminus. The recombinant plasmid was then sequenced for authentication and transformed into BL21(DE3) pLysS and pLysE strains of E. coli (Agilent Technologies) for heterologous expression. An overnight culture was used to inoculate a 20-200 mL culture, induced with 0.1 mM IPTG at an OD 600 nm >0,8 for initiation of recombinant protein translation then incubated at 18° C. and 250 RPM overnight. The cells were collected by centrifugation and the recombinant enzymes were extracted either as a crude extract or purified on a Ni-NTA agarose resin as previously described [Gonda I. et al., The Plant Journal (2013) 61, 458-472]. […]
For solid-phase microextraction (SPME) analysis, a 57298-U SPME fiber assembly Divinylbenzene/Carboxen/Polydimethylsiloxane (DVB/CAR/PDMS, Supelco) needle size 23 ga, StableFlex, was used with an autosampler and analyzed by GC-MS as previously described [Davidovich-Rikanati R. et al., Nature Biotech (2007) 25:899-901; Davidovich-Rikanati R. et al., Plant J (2008) 56:228-238]. […]

B1: 792-3: Cannabis terpene synthase gene product, amino acid SEQ ID NO: 8 (protein)
chain: MSYQVLASSQNDKVSKIVRPTTTYQPSIWGERFLQYSISDQDFSYKKQRVDELKEVVRREVFLECYDNVSYVLKIVDDVQRLGLSYHFENEIEKALQHIYDNTIHQNHKDEDLHDTSTRFRLLRQHGFMVSSNIFKIFKDEQGNFKECLITDILGLLSLYEASHLSYIGENILNEALAFTTTHLHQFVKNEKTHPLSNEVLLALQRPIRKSLERLHARHYISSYENKISHNKTLLELAKLDFNLLQCLHRKELSQISRWWKEIDFVHKLPFARDRIVELYLWLLGVFHEPELSLARIISTKVIALASVADDIYDAYGTFEELELLTESINRWDLNCADQLRPECLQTFYKVLLNCYEEFESELGKEESYKVYYAREAMKRLLGAYFSEARWLHEGYFPSFDEHLKVSLISCGYTMMIVTSLIGMKDCVTKQDFEWLSKDPKIMRDCNILCRFMDDIVSHKFEQQRDHSPSTVESYMRQYGVSEQEACDELRKQVINSWKEINKAFLRPSNVPYPVLSLVLNFSRVMDLLYKDGDGYTHIGKETKNSVVALLIDQIP
modifications: Terpene Synthase Gene Amino acid sequence of the 45 identified gene products
For the molecule B1, the “Sesquiterpenes produced with FPP” value is “caryophyllene, humulene”.

B2: AG046-1: Cannabis terpene synthase gene product, amino acid SEQ ID NO: 36 (protein)
chain: MIITGVISSSTPIFKDQPAAIVRRSGNYKPTLWDAHFFQSLQVIYTEESYGKRINELKEDVRRILEKEAENPLVKLEQINDLSRLGISYHFEDQIKTILNLTFNNNNALWKKDNLYATALHFKLLRQYGFSPVSSEVFNAFKDEKKEFKESLSKDVKGMVCLYEASFYSFRGEPILDEARDFTTKHLKQYLMTRQSQFTRVDHHDDDDHDLVKLVEHALDLPLHWRLPRLEARWFIDMYAERNYDMNPTFLDFAKLDYNFVQSAYQKELKYISRWWSGSRLTERLPFARDRVVEIFYSAVALKYEAEFGFVRTVMTKIGLLLTLMDDIYDVYGTLDELQLFLEAIERWNINELDQLPDYMKILFVAFYNNVNEISYYVLKENGIHTIKYLKKALGDLCKCYMEEAKWFHSGHIPSLEEFIENGWKSITIPLCLIYHYCLITTSITEQDMEHLLQYPTILRVSGTVFRFIDDLGTSSDELERGDNPSSIQCYMREKGVSENESREHIWNLISEGWKEINEVKASNSPYSQVFIESAIDFVRGAMEMYHKGDGFGTNQDRYLKTKVVNMFFDPIPI
modifications: Terpene Synthase Gene Amino acid sequence of the 45 identified gene products
Consider B2, for which the “Sesquiterpenes produced with FPP” value was “bisabolene”.
